Reference: US20190367620A1 (Merck KGaA, published 2019)
Where a chain is given by its changes, count along the chain named.

Tests used:
Assay in all cases: SPR as in Example 1.8
[1] = target: T1, FGFR1 D2 point mutant K48A (human, UniProt P11362 22-254)
T1 chain: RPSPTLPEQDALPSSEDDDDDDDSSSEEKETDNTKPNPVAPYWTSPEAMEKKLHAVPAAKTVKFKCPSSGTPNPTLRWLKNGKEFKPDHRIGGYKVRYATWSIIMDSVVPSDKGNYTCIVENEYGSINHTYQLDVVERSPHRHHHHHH
Protocol: (§1) Binding affinities of anti-FGFR1 antibodies to FGFR1 were measured by Surface Plasmon Resonance (SPR) using a GE Healthcare BIAcore 4000 instrument as follows. Goat anti-human Fc antibody (Jackson ImmunoResearch Laboratories #109-005-098) was first immobilized on BIAcore carboxymethylated dextran CM5 chip using direct coupling to free amino groups following the procedure described by the manufacturer. Antibodies were then captured on the CM5 biosensor chip to achieve approximately 200 response units (RU). Binding measurements were performed using the running HBS-EP+ buffer. A 2-fold dilution series of His-tagged FGFR1 proteins were injected at a flow rate of 30 μl/min at 25° C. Association rates (kₒₙ, per mol/s) and dissociation rates (koff, per s) were calculated using a simple 1:1 Langmuir binding model (Biacore 4000 Evaluation Software). The equilibrium dissociation constant (KD, mol) was calculated as the ratio of koff/kₒₙ.
(§2) To obtain a finer, residue-level mapping of the epitope and to complement the HD exchange data, molecular modelling and manual inspection of the crystal structure of FGFR1 [(Beenken et al. 2012); PDB record 3OJV] was used to select solvent exposed residues within and around the epitope identified by HD exchange. The selected residues were mutated either to alanine (large to small) or to glycine if the selected residue was alanine. In total 35 point mutants were designed, expressed and purified in HEK cells, and tested for binding to mAb #A08 using surface plasmon resonance as described in Example 1.8. The affinity of the antibody for wild-type and each mutant was determined and used to calculate the contribution of each epitope residue to the binding energy.

[2] = target: T2, FGFR1 D2 point mutant E50A (human, UniProt P11362 22-254)
T2 chain: T1 chain with A48K, E50A
Protocol: as §1, §2

[3] = target: T3, FGFR1 D2 point mutant P87A (human, UniProt P11362 22-254)
T3 chain: T1 chain with A48K, P87A
Protocol: as §1, §2

[4] = target: T4, FGFR1 D2 point mutant I91A (human, UniProt P11362 22-254)
T4 chain: T1 chain with A48K, I91A
Protocol: as §1, §2

[5] = target: T5, FGFR1 D2 point mutant G93A (human, UniProt P11362 22-254)
T5 chain: T1 chain with A48K, G93A
Protocol: as §1, §2

[6] = target: T6, FGFR1 D2 point mutant Y94A (human, UniProt P11362 22-254)
T6 construct: Uncharacteristic melting curve
T6 chain: T1 chain with A48K, Y94A
Protocol: as §1, §2

[7] = target: T7, FGFR1 D2 point mutant R97A (human, UniProt P11362 22-254)
T7 chain: T1 chain with A48K, R97A
Protocol: as §1, §2

[8] = target: T8, FGFR1 D2 point mutant A99G (human, UniProt P11362 22-254)
T8 chain: T1 chain with A48K, A99G
Protocol: as §1, §2

[9] = target: T9, FGFR1 D2 point mutant T100A (human, UniProt P11362 22-254)
T9 chain: T1 chain with A48K, T100A
Protocol: as §1, §2

[10] = target: T10, FGFR1 D2 point mutant D106A (human, UniProt P11362 22-254)
T10 chain: T1 chain with A48K, D106A
Protocol: as §1, §2

[11] = target: T11, FGFR1 D2 point mutant S107A (human, UniProt P11362 22-254)
T11 chain: T1 chain with A48K, S107A
Protocol: as §1, §2

- Kd [1]: 0.09 nM
- Kd [2]: 0.2 nM
- Kd [3]: 0.22 nM
- Kd [4]: 0.19 nM
- Kd [5]: 0.32 nM
- Kd [6]: 0.99 nM
- Kd [7]: 4.25 nM
- Kd [8]: 0.18 nM
- Kd [9]: 0.24 nM
- Kd [10]: 4.93 nM
- Kd [11]: 0.24 nM
B1: mAb #A08 (antibody, V domains shown)
VH: EVQLQESGPGLVKPSGTLSLTCAVSGGSISSNNWWSWVRQPPGKGLEWIGEIYHSGSTSYNPSLKSRVTISVDKSKNQFSLKLNSVTAADTAVYYCARGTDWFDPWGQGTLVTVSS
VL: QAVLTQPPSVSVAPGQTARITCGGNNIGSESVHWYQQKPGQAPVLVVYDDSDRPSGIPERFSGSNSGNTATLTISRVEAGDEADYYCQVWDSTSDHRVFGGGTKLTVL
notes: Only variable domains are tied to the name mAb #A08 (hit); also called #A08 hit; mAb #08
